Data taken from publication PMC5855951.

Molecular target: METTL3;METTL14 (human?;human?, UniProt Q86U44;Q9HCE5 1-580;1-456, |)
Test: filter binding

Sequence of METTL3;METTL14 (Q86U44 whole entry, chain 1 of 2): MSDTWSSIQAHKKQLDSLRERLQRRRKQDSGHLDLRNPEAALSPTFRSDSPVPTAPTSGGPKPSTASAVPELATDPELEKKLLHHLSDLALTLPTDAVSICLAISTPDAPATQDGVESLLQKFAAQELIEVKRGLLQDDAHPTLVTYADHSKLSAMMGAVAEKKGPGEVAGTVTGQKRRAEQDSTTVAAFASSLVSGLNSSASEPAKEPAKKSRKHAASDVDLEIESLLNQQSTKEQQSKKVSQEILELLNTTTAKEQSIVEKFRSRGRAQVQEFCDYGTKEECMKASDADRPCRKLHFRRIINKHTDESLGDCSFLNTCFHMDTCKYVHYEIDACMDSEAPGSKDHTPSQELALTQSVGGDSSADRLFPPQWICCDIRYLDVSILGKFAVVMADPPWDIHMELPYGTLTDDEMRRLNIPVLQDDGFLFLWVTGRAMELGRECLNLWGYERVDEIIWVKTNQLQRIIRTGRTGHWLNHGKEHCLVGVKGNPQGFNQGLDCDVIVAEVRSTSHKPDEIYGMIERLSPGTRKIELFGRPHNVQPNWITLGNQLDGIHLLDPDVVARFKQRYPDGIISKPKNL
Sequence of METTL3;METTL14 (Q9HCE5 whole entry, chain 2 of 2): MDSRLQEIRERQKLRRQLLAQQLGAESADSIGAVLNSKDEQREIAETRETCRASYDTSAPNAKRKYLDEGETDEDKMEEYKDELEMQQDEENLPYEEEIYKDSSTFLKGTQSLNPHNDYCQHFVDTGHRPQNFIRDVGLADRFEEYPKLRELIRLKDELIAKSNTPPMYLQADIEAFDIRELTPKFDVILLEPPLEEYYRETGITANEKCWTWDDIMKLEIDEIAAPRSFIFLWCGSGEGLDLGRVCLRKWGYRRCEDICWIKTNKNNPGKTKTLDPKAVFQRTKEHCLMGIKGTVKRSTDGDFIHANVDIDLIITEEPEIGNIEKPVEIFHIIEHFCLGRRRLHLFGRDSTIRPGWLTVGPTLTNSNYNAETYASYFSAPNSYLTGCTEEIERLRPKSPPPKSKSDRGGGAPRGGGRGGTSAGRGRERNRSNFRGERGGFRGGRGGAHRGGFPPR

GGACUGGACUGGACUGGACU (ssRNA) [4x GGACU RNA probe]
binding result: binds
